This passage reports Kd results from patent US20250145729A1 (DENALI THERAPEUTICS, published 2025).

Substitutions are numbered along the chain they refer to. Numbers in names are those of the source.

B1: 42.8.167 (Fc fusion)
chain: APEAAGGPSVFLFPPKPKDTLMISRTPEVTCVVVDVSHEDPEVKFNWYVDGVEVHNAKTKPREEQYNSTYRVVSVLTVLHQDWLNGKEYKCKVSNKALGAPIEKTISKAKGQPREPQVYTLPPSRDELTKNQVSLTCLVKGFYPSDIAVEWFYDASKLTNYKTTPPVLDSDGSFFLYSKLTVDKSRWQQGNLFACEVMHEALHNHYTYKLLSLSPGK
notes: bivalent; P329G+LALA
B2: 42.8.118 (Fc fusion)
chain: B1 chain with D154G, A155G, T159N
notes: bivalent; P329G+LALA
B3: 42.8.110 (Fc fusion)
chain: B1 chain with D154G, A155G, S156Q, L158E
notes: bivalent; P329G+LALA
B4: 42.8.137 (Fc fusion)
chain: B1 chain with D154G, A155D, S156Q
notes: bivalent; P329G+LALA
B5: 42.8.127 (Fc fusion)
chain: B1 chain with D154G, L158E, T159N
notes: bivalent; P329G+LALA
B6: 42.8.163 (Fc fusion)
chain: B1 chain with L158E, T159N
notes: bivalent; P329G+LALA
B7: 42.8.156 (Fc fusion)
chain: B1 chain with A155G, T159S
notes: bivalent; P329G+LALA
B8: 42.8.71 (Fc fusion)
chain: B1 chain with Y153S, A155D
notes: bivalent; P329G+LALA
B9: 42.8.149 (Fc fusion)
chain: B1 chain with A155G, S156Q
notes: bivalent; P329G+LALA
B10: 42.8.112 (Fc fusion)
chain: B1 chain with D154G, A155G, S156Q, T159N
notes: bivalent; P329G+LALA
B11: 42.8.153 (Fc fusion)
chain: B1 chain with A155G, L158E, T159S
notes: bivalent; P329G+LALA
B12: 42.8.114 (Fc fusion)
chain: B1 chain with D154G, A155G, S156Q, T159S
notes: bivalent; P329G+LALA
B13: 42.8.139 (Fc fusion)
chain: B1 chain with D154G, A155D, L158E, T159N
notes: bivalent; P329G+LALA
B14: 42.8.162 (Fc fusion)
chain: B1 chain with S156Q, T159S
notes: bivalent; P329G+LALA
B15: 42.8.152 (Fc fusion)
chain: B1 chain with A155G, L158E
notes: bivalent; P329G+LALA
B16: 42.8.159 (Fc fusion)
chain: B1 chain with S156Q, L158E, T159S
notes: bivalent; P329G+LALA
B17: 42.2.3-1H (Fc fusion)
chain: B1 chain with D154G, A155N, S156A, L158E
notes: P329G+LALA
B18: 42.8.150 (Fc fusion)
chain: B1 chain with A155G, S156Q, T159S
notes: bivalent; P329G+LALA
B19: 42.8.109 (Fc fusion)
chain: B1 chain with D154G, A155G, S156Q, L158E, T159N
notes: bivalent; P329G+LALA
B20: 42.8.94 (Fc fusion)
chain: B1 chain with Y153S, D154E, T159N
notes: bivalent; P329G+LALA
B21: 42.8.95 (Fc fusion)
chain: B1 chain with Y153S, D154E
notes: bivalent; P329G+LALA
B22: 42.8.157 (Fc fusion)
chain: B1 chain with S156Q, L158E, T159N
notes: bivalent; P329G+LALA
B23: 42.8.144 (Fc fusion)
chain: B1 chain with D154G, A155D, T159S
notes: bivalent; P329G+LALA
B24: 42.8.128 (Fc fusion)
chain: B1 chain with D154G, L158E
notes: bivalent; P329G+LALA
B25: 42.8.166 (Fc fusion)
chain: B1 chain with T159N
notes: bivalent; P329G+LALA
B26: 42.8.151 (Fc fusion)
chain: B1 chain with A155G, L158E, T159N
notes: bivalent; P329G+LALA
B27: 42.8.113 (Fc fusion)
chain: B1 chain with D154G, A155G, S156Q
notes: bivalent; P329G+LALA
B28: 42.8.56 (Fc fusion)
chain: B1 chain with Y153S, L158E
notes: bivalent; P329G+LALA
B29: 42.2.1.2 (Fc fusion)
chain: B1 chain with A155D
notes: bivalent; P329G+LALA
B30: 42.8.143 (Fc fusion)
chain: B1 chain with D154G, A155D
notes: bivalent; P329G+LALA
B31: 42.8.63 (Fc fusion)
chain: B1 chain with Y153S, A155D, S156Q, L158E, T159S
notes: bivalent; P329G+LALA
B32: 42.8.96 (Fc fusion)
chain: B1 chain with Y153S, D154E, T159S
notes: bivalent; P329G+LALA
B33: 6.5.11.1 (Fc fusion)
chain: B1 chain with E150N, Y153S, D154N, A155G, S156Q, K157I, L158E, T159N
notes: P329G+LALA
B34: 42.8.64 (Fc fusion)
chain: B1 chain with Y153S, A155D, S156Q, T159N
notes: bivalent; P329G+LALA
B35: 6.5.11.5.42 (Fc fusion)
chain: B1 chain with E150Y, Y153S, D154G, A155G, S156Q, K157R, L158E, T159N
notes: P329G+LALA
B36: 42.8.77 (Fc fusion)
chain: B1 chain with Y153S, D154E, A155G, S156Q
notes: bivalent; P329G+LALA
B37: 42.8.172 (Fc fusion)
chain: B1 chain with A155D, S156Q, T159N
notes: bivalent; P329G+LALA
B38: 42.8.57 (Fc fusion)
chain: B1 chain with Y153S, L158E, T159S
notes: bivalent; P329G+LALA
B39: 42.8.55 (Fc fusion)
chain: B1 chain with Y153S, L158E, T159N
notes: bivalent; P329G+LALA
B40: 42.8.99 (Fc fusion)
chain: B1 chain with Y153S, D154E, A155D, S156Q, L158E, T159S
notes: bivalent; P329G+LALA
B41: 42.8.87 (Fc fusion)
chain: B1 chain with Y153S, D154E, S156Q, L158E, T159S
notes: bivalent; P329G+LALA
B42: 6.5.11.7.122 (Fc fusion)
chain: B1 chain with E150F, Y153S, D154N, A155G, S156Q, K157R, L158E, T159N
notes: bivalent; P329G+LALA
B43: 42.8.17 (Fc fusion)
chain: B1 chain with Y153S, D154G, S156Q
notes: bivalent; P329G+LALA
B44: 42.8.16 (Fc fusion)
chain: B1 chain with Y153S, D154G, S156Q, T159N
notes: bivalent; P329G+LALA
B45: 42.8.88 (Fc fusion)
chain: B1 chain with Y153S, D154E, S156Q, T159N
notes: bivalent; P329G+LALA

For one assay, the target named is T1, circularly permuted cyno TfR apical domain (cynomolgus monkey).
T1 construct: same design as the human construct; also called cyTfR Apical Domain; cynomolgus TfR apical domain
T1 chain: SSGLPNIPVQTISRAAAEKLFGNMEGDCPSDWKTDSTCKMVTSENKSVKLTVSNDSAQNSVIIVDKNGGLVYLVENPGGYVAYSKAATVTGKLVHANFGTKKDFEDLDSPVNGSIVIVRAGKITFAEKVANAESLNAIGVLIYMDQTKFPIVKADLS
Description: SPR, supernatant, anti-Fab capture. How it is done:
(§1) Clones were expressed in HEK293 cells. Supernatants were captured for SPR by GE Healthcare anti-human Fab capture kit and the affinity to human and cyno TfR apical domain was measured (Table 30). The clones in Table 30 were bivalent and each TfR-binding Fc polypeptide also contained P329G and LALA mutations.
For the molecule B1, the Kd was 6.59 µM. On the same count and under the same terms, the value for B2 was 4.29 µM; that for B3 was 15.8 µM. Same read-out and setting: the value for B4 was 12.6 µM; that for B5 was 3.04 µM; that for B6 was 7.82 µM.

The molecule B7 registered a Kd of 13.3 µM. Same read-out and setting: the value for B8 was 12.9 µM; that for B9 was 16 µM. On the same count and under the same terms, the result for B10 reads 13.3 µM; that for B11, 14.5 µM. Same read-out and setting: the result for B12 reads 18.3 µM. For the molecule B13, the Kd was 6.1 µM. On the same count and under the same terms, the value for B14 was 23.2 µM. Still for that read-out and setting: the result for B15 reads 10.9 µM. With B16, binding was characterised by a dissociation constant (Kd) of 10.8 µM. Molecule B17 displayed a Kd of 2 µM. On the same count and under the same terms, the result for B18 reads 11.8 µM; that for B19, 13.6 µM; that for B20, 22.2 µM. Still for that read-out and setting: the result for B21 reads 23.1 µM; that for B22, 15.5 µM; that for B23, 3.87 µM. The same measure, in the same setting: the result for B24 reads 5.45 µM; that for B25, 5 µM. Molecule B26 returned a Kd of 13.1 µM. Still for that read-out and setting: the result for B27 reads 34.3 µM; that for B28, 28.4 µM. Still for that read-out and setting: the value for B29 was 9.14 µM. The same measure, in the same setting: the value for B30 was 5.18 µM; that for B31 was 4.94 µM; that for B32 was 21.9 µM.

In a further assay the target is T2, circularly permuted human TfR apical domain (human).
T2 construct: TfR residues 326-379 stand N-terminal to 194-296, loop 297-325 deleted; also called huTfR Apical Domain
T2 chain: T1 chain with K39R, N45S, S47N, G69R, D108Y, S109T, K153N, D155E
Description: SPR, supernatant, anti-Fab capture. How it is done:
as §1
For the molecule B33, the Kd stood at 10 µM. On the same count and under the same terms, the value for B1 was 0.502 µM; that for B2 was 0.867 µM.

B34 yielded a Kd of 5.69 µM. On the same count and under the same terms, the result for B3 reads 1.76 µM; that for B35, 2 µM. The same measure, in the same setting: the value for B4 was 1.18 µM; that for B5 was 0.633 µM. On the same count and under the same terms, the value for B6 was 1.38 µM; that for B7 was 1.39 µM; that for B8 was 3 µM. In turn, B9 showed a Kd of 2.38 µM.

Turning to B10, the affinity, expressed as Kd, was 1.14 µM. Consider B11, for which the affinity, expressed as Kd, was 1.84 µM. Regarding B12, the Kd stood at 1.81 µM. The same measure, in the same setting: the value for B36 was 8.1 µM; that for B13 was 0.85 µM.

In turn, B37 returned a Kd of 0.795 µM. Take B14: binding was put at a Kd of 1.19 µM.

For the molecule B38, the equilibrium dissociation constant (Kd) was determined as 4.9 µM.

The molecule B15 returned a Kd of 1.02 µM. With B39, binding was characterised by a dissociation constant (Kd) of 6.16 µM. The same measure, in the same setting: the result for B16 reads 1.32 µM; that for B17, 0.22 µM.

Turning to B40, the Kd was determined as 6.38 µM. Same read-out and setting: the value for B18 was 2.65 µM. As for B41, the Kd was determined as 1.66 µM. With B19, the Kd is 2.02 µM. The same measure, in the same setting: the value for B42 was 4.6 µM. Still for that read-out and setting: the value for B20 was 4.07 µM; that for B21 was 4.13 µM. On the same count and under the same terms, the value for B22 was 2.1 µM. The molecule B23 yielded a Kd of 0.47 µM.

The molecule B43 gave a Kd of 10.4 µM. On the same count and under the same terms, the value for B24 was 0.654 µM; that for B25 was 0.855 µM.

In turn, B26 displayed a Kd of 1.51 µM.

Take B27: the Kd came out at 1.61 µM. On the same count and under the same terms, the value for B28 was 4.83 µM; that for B29 was 0.507 µM; that for B44 was 7.81 µM.

With B30, the Kd stood at 0.454 µM. Still for that read-out and setting: the value for B31 was 4.19 µM; that for B32 was 9.44 µM; that for B45 was 9.16 µM.
